Data published in article PMC9482650, “Quantitative fragmentomics allow affinity mapping of interactomes” (Nature Communications, 2022).

What was measured:
Experiment in all cases: holdup assay
Parameters in all cases: key: below the threshold = too weak to quantify, mostly under pKd 3.1 to 4
Conditions in all cases: plain residues with an end cap or a label only (N-terminal biotin on a linker: ado-ado)
APBA2_2, Q99767 = target: T1, APBA2_2, Q99767
T1 sequence (Q99767 654-744, limits assumed, looked up): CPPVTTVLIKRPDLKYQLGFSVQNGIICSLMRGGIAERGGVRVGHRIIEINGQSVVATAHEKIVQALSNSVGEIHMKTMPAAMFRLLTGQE

CARD11, Q9BXL7 = target: T2, CARD11, Q9BXL7
T2 sequence (Q9BXL7 662-765, limits assumed, looked up): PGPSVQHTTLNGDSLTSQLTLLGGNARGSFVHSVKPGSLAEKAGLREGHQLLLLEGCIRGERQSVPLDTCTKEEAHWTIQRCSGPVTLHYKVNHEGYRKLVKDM

CASK, O14936 = target: CASK, O14936
Sequence of CASK, O14936 (O14936 487-570): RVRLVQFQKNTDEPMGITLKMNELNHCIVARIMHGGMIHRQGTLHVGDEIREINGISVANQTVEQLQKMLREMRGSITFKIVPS

DFNB31_2, Q9P202 = target: T3, DFNB31_2, Q9P202
T3 sequence (Q9P202 274-371, limits assumed, looked up): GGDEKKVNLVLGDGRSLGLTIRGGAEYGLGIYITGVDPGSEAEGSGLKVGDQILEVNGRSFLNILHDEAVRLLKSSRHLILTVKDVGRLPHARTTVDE

DLG3_2, Q92796 = target: T4, DLG3_2, Q92796
T4 sequence (Q92796 221-321, limits assumed, looked up): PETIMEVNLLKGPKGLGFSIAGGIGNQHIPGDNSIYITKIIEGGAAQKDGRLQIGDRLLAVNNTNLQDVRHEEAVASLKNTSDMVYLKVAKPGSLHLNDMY

DLG3_3, Q92796 = target: T5, DLG3_3, Q92796
T5 sequence (Q92796 374-475, limits assumed, looked up): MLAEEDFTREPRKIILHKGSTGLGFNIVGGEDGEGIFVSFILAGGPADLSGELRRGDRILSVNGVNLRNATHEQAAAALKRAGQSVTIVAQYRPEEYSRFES

DLG4_1, P78352 = target: DLG4_1, P78352
Sequence of DLG4_1, P78352 (P78352 62-152): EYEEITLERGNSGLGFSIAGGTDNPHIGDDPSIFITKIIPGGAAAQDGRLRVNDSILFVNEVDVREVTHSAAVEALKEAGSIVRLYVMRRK

FRMPD2_3, Q68DX3 = target: FRMPD2_3, Q68DX3
Sequence of FRMPD2_3, Q68DX3 (Q68DX3 1073-1166): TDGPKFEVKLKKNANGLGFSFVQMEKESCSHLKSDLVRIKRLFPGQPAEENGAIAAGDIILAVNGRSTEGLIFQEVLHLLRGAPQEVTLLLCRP

GRIP2_3, Q9C0E4 = target: GRIP2_3, Q9C0E4
Sequence of GRIP2_3, Q9C0E4 (Q9C0E4 238-339): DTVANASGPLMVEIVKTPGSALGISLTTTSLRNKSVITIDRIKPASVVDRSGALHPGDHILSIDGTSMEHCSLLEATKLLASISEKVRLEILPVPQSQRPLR

GRIP2_4, Q9C0E4 = target: GRIP2_4, Q9C0E4
Sequence of GRIP2_4, Q9C0E4 (Q9C0E4 446-548): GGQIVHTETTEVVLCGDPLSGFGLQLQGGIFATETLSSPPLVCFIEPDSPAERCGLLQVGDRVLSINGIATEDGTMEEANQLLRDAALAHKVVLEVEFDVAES

GRIP2_5, Q9C0E4 = target: GRIP2_5, Q9C0E4
Sequence of GRIP2_5, Q9C0E4 (Q9C0E4 544-642): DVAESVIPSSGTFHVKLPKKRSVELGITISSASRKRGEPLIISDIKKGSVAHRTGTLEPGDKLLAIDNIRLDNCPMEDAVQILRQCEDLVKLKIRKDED

GRIP2_6, Q9C0E4 = target: GRIP2_6, Q9C0E4
Sequence of GRIP2_6, Q9C0E4 (Q9C0E4 648-740): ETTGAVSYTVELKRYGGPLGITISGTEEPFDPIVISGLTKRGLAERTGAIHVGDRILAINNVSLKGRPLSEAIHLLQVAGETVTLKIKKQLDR

IL16_3, Q14005 = target: IL16_3, Q14005
Sequence of IL16_3, Q14005 (Q14005 1107-1207): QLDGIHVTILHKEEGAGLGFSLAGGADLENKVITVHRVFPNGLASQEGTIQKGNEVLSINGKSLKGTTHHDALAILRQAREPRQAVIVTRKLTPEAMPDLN

Inadl_1, Q8NI35 = target: Inadl_1, Q8NI35
Sequence of Inadl_1, Q8NI35 (Q8NI35 113-229): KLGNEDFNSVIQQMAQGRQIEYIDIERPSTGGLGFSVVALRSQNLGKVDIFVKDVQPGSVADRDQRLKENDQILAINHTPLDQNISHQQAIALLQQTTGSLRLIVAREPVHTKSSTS

Inadl_8, Q8NI35 = target: Inadl_8, Q8NI35
Sequence of Inadl_8, Q8NI35 (Q8NI35 1425-1530): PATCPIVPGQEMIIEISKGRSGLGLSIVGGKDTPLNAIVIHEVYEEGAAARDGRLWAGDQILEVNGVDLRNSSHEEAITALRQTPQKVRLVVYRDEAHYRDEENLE

LDB3, O75112 = target: LDB3, O75112
Sequence of LDB3, O75112 (O75112 1-94): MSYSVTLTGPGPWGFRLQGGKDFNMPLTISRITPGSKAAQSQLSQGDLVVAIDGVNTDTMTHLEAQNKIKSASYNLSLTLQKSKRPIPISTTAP

LIMK2, P53671 = target: LIMK2, P53671
Sequence of LIMK2, P53671 (P53671 143-248): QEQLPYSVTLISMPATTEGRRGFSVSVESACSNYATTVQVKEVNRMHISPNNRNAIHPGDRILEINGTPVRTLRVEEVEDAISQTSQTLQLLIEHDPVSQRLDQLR

LNX2_2, Q8N448 = target: T6, LNX2_2, Q8N448
T6 sequence (Q8N448 334-432, limits assumed, looked up): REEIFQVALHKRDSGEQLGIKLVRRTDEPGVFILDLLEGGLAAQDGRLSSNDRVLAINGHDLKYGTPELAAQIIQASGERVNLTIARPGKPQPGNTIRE

MAGI2_4, Q86UL8 = target: MAGI2_4, Q86UL8
Sequence of MAGI2_4, Q86UL8 (Q86UL8 772-865): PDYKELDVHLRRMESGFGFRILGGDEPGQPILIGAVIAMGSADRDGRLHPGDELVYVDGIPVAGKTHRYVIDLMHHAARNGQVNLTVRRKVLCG

MAGI2_6, Q86UL8 = target: MAGI2_6, Q86UL8
Sequence of MAGI2_6, Q86UL8 (Q86UL8 1141-1229): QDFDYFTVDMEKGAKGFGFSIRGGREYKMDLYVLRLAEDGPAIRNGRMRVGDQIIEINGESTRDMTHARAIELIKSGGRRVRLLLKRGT

MAGI3_2, Q5TCQ9 = target: MAGI3_2, Q5TCQ9
Sequence of MAGI3_2, Q5TCQ9 (Q5TCQ9 398-503): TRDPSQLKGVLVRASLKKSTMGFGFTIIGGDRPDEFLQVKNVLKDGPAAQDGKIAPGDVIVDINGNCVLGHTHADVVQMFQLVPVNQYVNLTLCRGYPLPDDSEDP

MPDZ_12, O75970 = target: T7, MPDZ_12, O75970
T7 sequence (O75970 1857-1958, limits assumed, looked up): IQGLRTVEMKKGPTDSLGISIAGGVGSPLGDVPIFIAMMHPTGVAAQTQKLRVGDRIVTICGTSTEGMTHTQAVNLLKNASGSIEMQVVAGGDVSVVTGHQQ

MPP2, Q14168 = target: T8, MPP2, Q14168
T8 sequence (Q14168 180-250, limits assumed, looked up): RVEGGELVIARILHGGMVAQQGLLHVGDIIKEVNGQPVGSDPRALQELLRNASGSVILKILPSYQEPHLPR

PDZD7_3, Q9H5P4 = target: T9, PDZD7_3, Q9H5P4
T9 sequence (Q9H5P4 857-944, limits assumed, looked up): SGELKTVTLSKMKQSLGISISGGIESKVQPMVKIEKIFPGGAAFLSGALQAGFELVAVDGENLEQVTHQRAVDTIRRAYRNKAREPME

PTPN3, P26045 = target: PTPN3, P26045
Sequence of PTPN3, P26045 (P26045 505-587): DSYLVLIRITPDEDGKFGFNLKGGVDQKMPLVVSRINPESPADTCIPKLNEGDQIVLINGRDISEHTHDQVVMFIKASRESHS

SHANK1, Q9Y566 = target: T10, SHANK1, Q9Y566
T10 sequence (Q9Y566 658-767, limits assumed, looked up): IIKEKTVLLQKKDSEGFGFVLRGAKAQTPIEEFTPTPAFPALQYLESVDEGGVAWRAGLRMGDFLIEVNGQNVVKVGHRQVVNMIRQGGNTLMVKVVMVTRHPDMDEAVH

TJP1_3, Q07157 = target: TJP1_3, Q07157
Sequence of TJP1_3, Q07157 (Q07157 416-512): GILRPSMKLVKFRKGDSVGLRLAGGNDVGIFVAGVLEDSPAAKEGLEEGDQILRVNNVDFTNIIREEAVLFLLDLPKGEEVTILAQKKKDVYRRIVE

TJP3_3, O95049 = target: T11, TJP3_3, O95049
T11 sequence (O95049 375-456, limits assumed, looked up): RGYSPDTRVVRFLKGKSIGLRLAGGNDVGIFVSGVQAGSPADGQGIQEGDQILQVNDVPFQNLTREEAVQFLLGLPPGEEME

EVEEFPETSV [TRPV3, Q8NET8]
pKd (APBA2_2, Q99767): below the threshold
pKd (CARD11, Q9BXL7): 3.49
pKd (CASK, O14936): below the threshold
pKd (DFNB31_2, Q9P202): 3.5
pKd (DLG3_2, Q92796): 4.22
pKd (DLG3_3, Q92796): 4.54
pKd (DLG4_1, P78352): 4.36
pKd (FRMPD2_3, Q68DX3): below the threshold
pKd (GRIP2_3, Q9C0E4): below the threshold
pKd (GRIP2_4, Q9C0E4): 3.55
pKd (GRIP2_5, Q9C0E4): below the threshold
pKd (GRIP2_6, Q9C0E4): below the threshold
pKd (IL16_3, Q14005): below the threshold
pKd (Inadl_1, Q8NI35): below the threshold
pKd (Inadl_8, Q8NI35): 3.86
pKd (LDB3, O75112): below the threshold
pKd (LIMK2, P53671): below the threshold
pKd (LNX2_2, Q8N448): 3.98
pKd (MAGI2_4, Q86UL8): 3.68
pKd (MAGI2_6, Q86UL8): 4.71
pKd (MAGI3_2, Q5TCQ9): 4.27
pKd (MPDZ_12, O75970): below the threshold
pKd (MPP2, Q14168): below the threshold
pKd (PDZD7_3, Q9H5P4): 4.82
pKd (PTPN3, P26045): 4.95
pKd (SHANK1, Q9Y566): 3.94
pKd (TJP1_3, Q07157): 3.5
pKd (TJP3_3, O95049): 3.57

LPHPHSTTRV [NLGN2, Q8NFZ4]
pKd (APBA2_2, Q99767): below the threshold
pKd (CARD11, Q9BXL7): below the threshold
pKd (CASK, O14936): below the threshold
pKd (DFNB31_2, Q9P202): below the threshold
pKd (DLG3_2, Q92796): 3.96
pKd (DLG3_3, Q92796): 3.86
pKd (DLG4_1, P78352): below the threshold
pKd (FRMPD2_3, Q68DX3): below the threshold
pKd (GRIP2_3, Q9C0E4): 3.52
pKd (GRIP2_4, Q9C0E4): below the threshold
pKd (GRIP2_5, Q9C0E4): below the threshold
pKd (GRIP2_6, Q9C0E4): below the threshold
pKd (IL16_3, Q14005): below the threshold
pKd (Inadl_1, Q8NI35): below the threshold
pKd (Inadl_8, Q8NI35): 4.39
pKd (LDB3, O75112): below the threshold
pKd (LIMK2, P53671): below the threshold
pKd (LNX2_2, Q8N448): 3.51
pKd (MAGI2_4, Q86UL8): 3.72
pKd (MAGI2_6, Q86UL8): below the threshold
pKd (MAGI3_2, Q5TCQ9): 5.12
pKd (MPDZ_12, O75970): below the threshold
pKd (MPP2, Q14168): below the threshold
pKd (PDZD7_3, Q9H5P4): 4.26
pKd (PTPN3, P26045): below the threshold
pKd (SHANK1, Q9Y566): 4.81
pKd (TJP1_3, Q07157): below the threshold
pKd (TJP3_3, O95049): below the threshold

QGLAERISVL [PRKD2, Q9BZL6]
pKd (APBA2_2, Q99767): below the threshold
pKd (CARD11, Q9BXL7): below the threshold
pKd (CASK, O14936): below the threshold
pKd (DFNB31_2, Q9P202): below the threshold
pKd (DLG3_2, Q92796): below the threshold
pKd (DLG3_3, Q92796): below the threshold
pKd (DLG4_1, P78352): below the threshold
pKd (FRMPD2_3, Q68DX3): below the threshold
pKd (GRIP2_3, Q9C0E4): below the threshold
pKd (GRIP2_4, Q9C0E4): below the threshold
pKd (GRIP2_5, Q9C0E4): below the threshold
pKd (GRIP2_6, Q9C0E4): below the threshold
pKd (IL16_3, Q14005): below the threshold
pKd (Inadl_1, Q8NI35): below the threshold
pKd (Inadl_8, Q8NI35): 3.8
pKd (LDB3, O75112): below the threshold
pKd (LIMK2, P53671): below the threshold
pKd (LNX2_2, Q8N448): below the threshold
pKd (MAGI2_4, Q86UL8): below the threshold
pKd (MAGI2_6, Q86UL8): 3.98
pKd (MAGI3_2, Q5TCQ9): below the threshold
pKd (MPDZ_12, O75970): below the threshold
pKd (MPP2, Q14168): below the threshold
pKd (PDZD7_3, Q9H5P4): 5.21
pKd (PTPN3, P26045): 4.72
pKd (SHANK1, Q9Y566): 4.23
pKd (TJP1_3, Q07157): below the threshold
pKd (TJP3_3, O95049): below the threshold

PRISRSQSEL [CCDC134, Q9H6E4]
pKd (APBA2_2, Q99767): below the threshold
pKd (CARD11, Q9BXL7): below the threshold
pKd (CASK, O14936): below the threshold
pKd (DFNB31_2, Q9P202): below the threshold
pKd (DLG3_2, Q92796): 3.98
pKd (DLG3_3, Q92796): below the threshold
pKd (DLG4_1, P78352): below the threshold
pKd (FRMPD2_3, Q68DX3): below the threshold
pKd (GRIP2_3, Q9C0E4): below the threshold
pKd (GRIP2_4, Q9C0E4): below the threshold
pKd (GRIP2_5, Q9C0E4): below the threshold
pKd (GRIP2_6, Q9C0E4): below the threshold
pKd (IL16_3, Q14005): below the threshold
pKd (Inadl_1, Q8NI35): below the threshold
pKd (Inadl_8, Q8NI35): below the threshold
pKd (LDB3, O75112): below the threshold
pKd (LIMK2, P53671): below the threshold
pKd (LNX2_2, Q8N448): below the threshold
pKd (MAGI2_4, Q86UL8): below the threshold
pKd (MAGI2_6, Q86UL8): below the threshold
pKd (MAGI3_2, Q5TCQ9): 4.25
pKd (MPDZ_12, O75970): below the threshold
pKd (MPP2, Q14168): below the threshold
pKd (PDZD7_3, Q9H5P4): below the threshold
pKd (PTPN3, P26045): 4.22
pKd (SHANK1, Q9Y566): below the threshold
pKd (TJP1_3, Q07157): below the threshold
pKd (TJP3_3, O95049): below the threshold
